The supplement of paper PMC10598134
± gives the standard deviation.

Test: collision cross section of modified peptide (TIMS, N2, iRT-aligned); higher = larger / more extended gas-phase ion
How it was run: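 On a timsTOF Pro/HT (dda-PASEF, nitrogen, ~2.4 mbar), synthetic peptide pools were analysed after a 120-min nanoflow C18 separation at 60 °C and identified in MaxQuant. Three reference ions served for 1/K0 calibration, with run-wise alignment to the median iRT peptide deviation. Collision cross section comes from the Mason-Schamp equation, using the most abundant feature per charge state averaged over 1–3 technical replicates.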

[1] = charge state: 2, modification: Trimethyl (K)
[2] = charge state: 3, modification: Trimethyl (K)
[3] = charge state: 2, modification: GlyGly (K)
[4] = charge state: 3, modification: GlyGly (K)
[5] = charge state: 2, modification: Succinyl
[6] = charge state: 2, modification: Phospho (Y)
[7] = charge state: 2, modification: Butyryl
[8] = charge state: 2, modification: Formyl
[9] = charge state: 2, modification: Malonyl
[10] = charge state: 3, modification: Succinyl
[11] = charge state: 2, modification: hydroxyisobutyryl
[12] = charge state: 2, modification: Glutarylation
[13] = charge state: 2, modification: Crotonyl
[14] = charge state: 3, modification: Crotonyl
[15] = charge state: 3, modification: Butyryl
[16] = charge state: 2, modification: Dimethyl (K)
[17] = charge state: 3, modification: Dimethyl (K)

Question: With “GSLEKGSPEDK [_GSLEK(Trimethyl (K))GSPEDK_]” as the sequence, how does the collision cross section [1] read?
Answer: Its collision cross section is 363.82 ± 0.64 Å².

Question: What about the collision cross section [2] of the same sequence?
Answer: The collision cross section was 436.7 ± 2.4 Å².

Question: Which results are given for “VSPASSVDSNIPSSQGYKK [_VSPASSVDSNIPSSQGYK(GlyGly (K))K_]”?
Answer: collision cross section [3]: 469.54 ± 1.4 Å²; collision cross section [4]: 521.06 ± 4.6 Å²

Question: Which collision cross section [5] does the source give for SDDESSQKDIK [_SDDESSQK(Succinyl)DIK_] here?
Answer: Its collision cross section is 378.1 ± 1 Å².

Question: Which collision cross section [6] does the source give for “GYLGPEQLPDCLK [_GY(Phospho (Y))LGPEQLPDCLK_]” here?
Answer: Its collision cross section is 400.34 ± 0.08 Å².

Question: For SDDESSQKDIK [_SDDESSQK(GlyGly (K))DIK_], which collision cross section [3] is on record?
Answer: The collision cross section was 380.21 ± 0.89 Å².

Question: What about the collision cross section [4] of the same sequence?
Answer: The collision cross section was 442.7 ± 0.74 Å².

Question: With “AVSILPLLGHGVPRLPPGR [_AVSILPLLGHGVPR(Citrullination (R))LPPGR_]” as the sequence, how does the collision cross section (charge state: 3, modification: Citrullination (R)) read?
Answer: Its collision cross section is 569.33 Å².

Question: Which collision cross section (charge state: 2, modification: Nitro (Y)) does the source give for VELCSFSGYK [_VELCSFSGY(Nitro (Y))K_] here?
Answer: Its collision cross section is 364.52 ± 0.72 Å².

Question: With “VDIDVPDVNIEGPDAKLK [_VDIDVPDVNIEGPDAK(Butyryl)LK_]” as the sequence, how does the collision cross section [7] read?
Answer: The collision cross section was 488.42 ± 0.47 Å².

Question: For LQLEIDQKK [_LQLEIDQK(Formyl)K_], which collision cross section [8] is on record?
Answer: The collision cross section was 362.42 ± 1 Å².

Question: With “QGNAVTLGDYYQGR [_QGNAVT(HexNAc (ST))LGDYYQGR_]” as the sequence, how does the collision cross section (charge state: 2, modification: HexNAc (ST)) read?
Answer: Its collision cross section is 432.99 ± 0.62 Å².

Question: For ISALQGKLSK [_ISALQGK(Formyl)LSK_], which collision cross section [8] is on record?
Answer: The collision cross section was 348.45 ± 1 Å².

Question: With “VSPASSVDSNIPSSQGYKK [_VSPASSVDSNIPSSQGYK(Formyl)K_]” as the sequence, how does the collision cross section [8] read?
Answer: Its collision cross section is 457.96 ± 0.14 Å².

Question: What about the collision cross section (charge state: 3, modification: Formyl) of the same sequence?
Answer: Its collision cross section is 550.3 ± 3 Å².

Question: With LTSLNVKYNNDK [_LTSLNVK(Malonyl)YNNDK_] as the sequence, how does the collision cross section [9] read?
Answer: Its collision cross section is 402.04 ± 0.61 Å².

Question: Which collision cross section [9] does the source give for “GETASKLQSEISR [_GETASK(Malonyl)LQSEISR_]” here?
Answer: The collision cross section was 395.19 ± 0.023 Å².

Question: Which collision cross section [5] does the source give for “LLIVSTTPYSEKDTK [_LLIVSTTPYSEK(Succinyl)DTK_]” here?
Answer: Its collision cross section is 458.63 ± 1.1 Å².

Question: And the collision cross section [10]?
Answer: The collision cross section was 480.04 ± 2.5 Å².

Question: For “ISSNFSSIIAEKLR [_ISSNFSSIIAEK(hydroxyisobutyryl)LR_]”, which collision cross section [11] is on record?
Answer: The collision cross section was 431.4 ± 1.4 Å².

Question: For “VLTANSNPSSPSAAKR [_VLTANSNPSSPSAAK(Trimethyl (K))R_]”, which collision cross section [1] is on record?
Answer: The collision cross section was 445.51 ± 0.016 Å².

Question: And the collision cross section [2]?
Answer: The collision cross section was 518.89 ± 1.6 Å².

Question: For “ITASLCDLKSR [_ITASLCDLK(Gluratylation)SR_]”, which collision cross section [12] is on record?
Answer: Its collision cross section is 391.61 ± 1.4 Å².

Question: Which results are given for “DYSAPVNFISAGLKK [_DYSAPVNFISAGLK(Crotonyl)K_]”?
Answer: collision cross section [13]: 438.67 ± 0.84 Å²; collision cross section [14]: 525.96 ± 1.3 Å²

Question: With LLEEEDSKLK [_LLEEEDSK(Crotonyl)LK_] as the sequence, how does the collision cross section [13] read?
Answer: Its collision cross section is 386.83 ± 0.27 Å².

Question: Which collision cross section [11] does the source give for “LQLEIDQKK [_LQLEIDQK(hydroxyisobutyryl)K_]” here?
Answer: Its collision cross section is 371.26 ± 0.27 Å².

Question: Which collision cross section (charge state: 2, modification: Acetyl (K)) does the source give for ITGKNQVTATK [_ITGK(Acetyl (K))NQVTATK_] here?
Answer: Its collision cross section is 365.02 ± 0.94 Å².

Question: With “AIEINPDSAQPYK [_AIEINPDSAQPY(Phospho (Y))K_]” as the sequence, how does the collision cross section [6] read?
Answer: The collision cross section was 402.87 ± 0.061 Å².

Question: With “IINEPTAAAIAYGLDKK [_IINEPTAAAIAYGLDK(Succinyl)K_]” as the sequence, how does the collision cross section [5] read?
Answer: The collision cross section was 465.22 ± 1.4 Å².

Question: And the collision cross section [10]?
Answer: The collision cross section was 564.64 ± 0.073 Å².

Question: For “YEQEHAAIQDKLFQVAK [_YEQEHAAIQDK(Acetyl (K))LFQVAK_]”, which collision cross section (charge state: 3, modification: Acetyl (K)) is on record?
Answer: Its collision cross section is 513.78 ± 1.6 Å².

Question: Which collision cross section [7] does the source give for LEEVTGKLQVAR [_LEEVTGK(Butyryl)LQVAR_] here?
Answer: The collision cross section was 398.95 ± 0.23 Å².

Question: And the collision cross section [15]?
Answer: The collision cross section was 467.68 Å².

Question: Which collision cross section [16] does the source give for “LQDVSGQLSSSKK [_LQDVSGQLSSSK(Dimethyl (K))K_]” here?
Answer: The collision cross section was 407.51 ± 1.1 Å².

Question: And the collision cross section [17]?
Answer: Its collision cross section is 466.01 ± 2.4 Å².

Question: With “LTSLNVKYNNDK [_LTSLNVK(hydroxyisobutyryl)YNNDK_]” as the sequence, how does the collision cross section [11] read?
Answer: Its collision cross section is 415.97 ± 0.31 Å².

Question: Which collision cross section [12] does the source give for “ANLEKAQAELVGTADEATR [_ANLEK(Gluratylation)AQAELVGTADEATR_]” here?
Answer: The collision cross section was 478.84 ± 1.4 Å².

Question: And the collision cross section (charge state: 3, modification: Glutarylation)?
Answer: Its collision cross section is 584.83 ± 0.77 Å².

Question: With “DVNAAIAAIKTK [_DVNAAIAAIK(Dimethyl (K))TK_]” as the sequence, how does the collision cross section [16] read?
Answer: Its collision cross section is 394.29 ± 0.87 Å².

Question: And the collision cross section [17]?
Answer: The collision cross section was 456.19 ± 1.7 Å².

Question: What does the source list for “IHVQSSSDSSDEPAEKR [_IHVQSSSDSSDEPAEK(Butyryl)R_]”?
Answer: collision cross section [7]: 452.33 ± 0.51 Å²; collision cross section [15]: 504.47 ± 2.6 Å²

Question: For SKLLFSNTAAQK [_SK(Formyl)LLFSNTAAQK_], which collision cross section [8] is on record?
Answer: Its collision cross section is 390.83 ± 0.41 Å².

Question: Which collision cross section [8] does the source give for IQTKAGEATVK [_IQTK(Formyl)AGEATVK_] here?
Answer: The collision cross section was 359.75 ± 0.38 Å².

Question: With FDDTNPEKEEAK [_FDDTNPEK(Crotonyl)EEAK_] as the sequence, how does the collision cross section [13] read?
Answer: The collision cross section was 399.58 ± 0.79 Å².

Question: What about the collision cross section [14] of the same sequence?
Answer: The collision cross section was 439.29 Å².

Question: For “AAQASDLEKIHLDEK [_AAQASDLEK(Biotin)IHLDEK_]”, which collision cross section (charge state: 3, modification: Biotin) is on record?
Answer: Its collision cross section is 515.52 Å².

Question: With “GETASKLQSEISR [_GETASK(hydroxyisobutyryl)LQSEISR_]” as the sequence, how does the collision cross section [11] read?
Answer: Its collision cross section is 394.7 ± 0.81 Å².
